Substrate in data set [1]: NC(=O)c1ccc[n+]([C@@H]2O[C@H](COP(=O)(O)O)[C@@H](O)[C@H]2O)c1
Kind of data set: purified protein. Particulars: 1 mM ATP, 20 mM MgCl2, 20 mM HEPES-KOH pH 7.4, 37°C. The data set is classed as biochemical, Mus musculus.

Substrate in data set [2]: Nc1ncnc2c1ncn2[C@@H]1O[C@H](COP(=O)(O)OP(=O)(O)OP(=O)(O)O)[C@@H](O)[C@H]1O
Kind of data set: purified protein. Format: biochemical, Mus musculus. Particulars: 1 mM NMN, 20 mM MgCl2, 20 mM HEPES-KOH pH 7.4, 37°C.

B1: Nmnat1 (mouse Nmnat1) (Mus musculus) (protein)
chain: MDSSKKTEVVLLACGSFNPITNMHLRLFELAKDYMHATGKYSVIKGIISPVGDAYKKKGLIPAHHRIIMAELATKNSHWVEVDTWESLQKEWVETVKVLRYHQEKLATGSCSYPQSSPALEKPGRKRKWADQKQDSSPQKPQEPKPTGVPKVKLLCGADLLESFSVPNLWKMEDITQIVANFGLICITRAGSDAQKFIYESDVLWRHQSNIHLVNEWITNDISSTKIRRALRRGQSIRYLVPDLVQEYIEKHELYNTESEGRNAGVTLAPLQRNAAEAKHNHSTL
B1: the figures for the Km in “purified protein [1]” and in “purified protein [2]” were 27.6 µM and 50.4 µM, respectively.

B2: Nmnat1 (mouse Nmnat1) (Mus musculus; H24A) (protein)
chain: MDSSKKTEVVLLACGSFNPITNMALRLFELAKDYMHATGKYSVIKGIISPVGDAYKKKGLIPAHHRIIMAELATKNSHWVEVDTWESLQKEWVETVKVLRYHQEKLATGSCSYPQSSPALEKPGRKRKWADQKQDSSPQKPQEPKPTGVPKVKLLCGADLLESFSVPNLWKMEDITQIVANFGLICITRAGSDAQKFIYESDVLWRHQSNIHLVNEWITNDISSTKIRRALRRGQSIRYLVPDLVQEYIEKHELYNTESEGRNAGVTLAPLQRNAAEAKHNHSTL
For the protein B2, the Km in “purified protein [2]” came out at 47.3 µM.

B3: Nmnat1 (mouse Nmnat1) (Mus musculus; W170A) (protein)
chain: MDSSKKTEVVLLACGSFNPITNMHLRLFELAKDYMHATGKYSVIKGIISPVGDAYKKKGLIPAHHRIIMAELATKNSHWVEVDTWESLQKEWVETVKVLRYHQEKLATGSCSYPQSSPALEKPGRKRKWADQKQDSSPQKPQEPKPTGVPKVKLLCGADLLESFSVPNLAKMEDITQIVANFGLICITRAGSDAQKFIYESDVLWRHQSNIHLVNEWITNDISSTKIRRALRRGQSIRYLVPDLVQEYIEKHELYNTESEGRNAGVTLAPLQRNAAEAKHNHSTL
Take B3: the Km in “purified protein [1]” turned out to be 1400 µM.
